The values that follow come from article PMC8794819, “Tuning protein half-life in mouse using sequence-defined biopolymers functionalized with lipids” (Proceedings of the National Academy of Sciences of the …, 2022).

Non-standard residues stand in square brackets, D forms with d. alkynyl palmitic acid = FA, attached to pAzF by click chemistry; Phe(4-N3) = [N-]=[N+]=Nc1ccc(C[C@H](N)C(=O)O)cc1

In one assay the target is T1, mouse serum albumin (mouse, UniProt P07724 25-608).
T1 construct: serum albumin, mouse, from mouse serum; also called MSA; albumin from mouse serum; source: bought: Sigma, catalog #A3139 (albumin from mouse serum)
T1 sequence (P07724 25-608): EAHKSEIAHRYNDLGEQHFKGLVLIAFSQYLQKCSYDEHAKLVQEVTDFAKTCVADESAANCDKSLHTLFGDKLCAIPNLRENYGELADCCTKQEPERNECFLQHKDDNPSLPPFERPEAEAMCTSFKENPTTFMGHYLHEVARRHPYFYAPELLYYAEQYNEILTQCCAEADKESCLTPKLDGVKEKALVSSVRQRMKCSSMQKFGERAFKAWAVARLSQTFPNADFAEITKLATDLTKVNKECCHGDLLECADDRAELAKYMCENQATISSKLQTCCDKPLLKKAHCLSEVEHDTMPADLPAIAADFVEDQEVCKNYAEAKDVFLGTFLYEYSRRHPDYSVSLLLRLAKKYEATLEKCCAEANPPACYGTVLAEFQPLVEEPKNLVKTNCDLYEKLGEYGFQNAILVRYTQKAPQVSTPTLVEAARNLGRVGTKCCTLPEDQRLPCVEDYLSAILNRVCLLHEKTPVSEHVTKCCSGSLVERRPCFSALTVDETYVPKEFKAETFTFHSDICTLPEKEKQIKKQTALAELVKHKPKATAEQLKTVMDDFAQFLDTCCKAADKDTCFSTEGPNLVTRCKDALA
In words: SPR; Biacore T200; HSA or MSA immobilised by amine coupling on CM5 chip (∼1,300 to 12,800 RU); ELP-GFP derivatives injected, twofold dilution series ∼0.28 to 60 µM; PBS running buffer; 60-s association, 600-s dissociation; steady-state affinity binding model; mean of four to eight independent measurements. The following applies: both partners purified. (In general: Surface plasmon resonance follows binding to a sensor surface in real time, without labels.)

The next assay deals with T2, human serum albumin (human, UniProt P02768 25-609).
T2 construct: serum albumin, human; also called HSA; source: bought: Sigma, catalog #A3782
The assay is described as above. Conditions: both partners purified.

B1: ELP(10FA)-GFP, ISAz treated (other)
chain: VPGAGVPG[Phe(4-N3)](alkynyl palmitic acid)GVPGGGVPGAGVPG[Phe(4-N3)](alkynyl palmitic acid)GVPGGGVPGAGVPG[Phe(4-N3)](alkynyl palmitic acid)GVPGGGVPGAGVPG[Phe(4-N3)](alkynyl palmitic acid)GVPGGGVPGAGVPG[Phe(4-N3)](alkynyl palmitic acid)GVPGGGVPGAGVPG[Phe(4-N3)](alkynyl palmitic acid)GVPGGGVPGAGVPG[Phe(4-N3)](alkynyl palmitic acid)GVPGGGVPGAGVPG[Phe(4-N3)](alkynyl palmitic acid)GVPGGGVPGAGVPG[Phe(4-N3)](alkynyl palmitic acid)GVPGGGVPGAGVPG[Phe(4-N3)](alkynyl palmitic acid)GVPGGG
modifications: not fully specified (C-terminus); also: pAzF coupled to alkynyl palmitic acid by click (triazole)
The term Kd denotes a measure of binding affinity in units of concentration. Low readings indicate higher affinity, high ones lower affinity. As for B1, the Kd with mouse serum albumin was found to be 2.22 µM; with human serum albumin, 1.64 µM.
